Patent publication US20050136043A1, “TGFbeta signaling inhibitors” (Ludwig Institute for Cancer Research, priority 2003, published 2005)

Experiments:
Assay in all cases: In vitro kinase assay (autophosphorylation) of receptor expressed in COS-7 cells
Assay type in all cases: biochemical
Settings in all cases: 10 μM peptide, FIG. 5
TβR-I (ALK-5) = target: T1, TβR-I (ALK-5) (Homo sapiens, UniProt P36897)
T1 construct: made in house; host or cells: COS-7 cells (transfected, immunoprecipitated)
T1 sequence (P36897 34-503): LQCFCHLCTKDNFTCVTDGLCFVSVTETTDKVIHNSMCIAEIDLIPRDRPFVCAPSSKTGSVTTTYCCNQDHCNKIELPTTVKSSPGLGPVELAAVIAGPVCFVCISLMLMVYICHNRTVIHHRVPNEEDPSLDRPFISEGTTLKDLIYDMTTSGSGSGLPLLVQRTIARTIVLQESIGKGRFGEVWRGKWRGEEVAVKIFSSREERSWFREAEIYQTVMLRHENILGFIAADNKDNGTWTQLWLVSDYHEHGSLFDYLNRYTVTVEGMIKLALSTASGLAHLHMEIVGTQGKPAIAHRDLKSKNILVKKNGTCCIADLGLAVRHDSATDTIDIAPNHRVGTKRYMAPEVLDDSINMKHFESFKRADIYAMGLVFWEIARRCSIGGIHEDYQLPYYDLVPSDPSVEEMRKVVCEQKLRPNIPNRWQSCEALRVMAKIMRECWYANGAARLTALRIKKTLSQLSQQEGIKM
Procedure: (§1) For in vitro kinase assay of type I and type II TGFβ family receptors, p38α and SAPKα2 kinases, COS-7 cells were transfected with the kinase expression vectors or the control empty pcDNA3 vector using the DEAE-dextran method. Proteins were extracted in a lysis buffer (50 mM Tris-HCl, pH 7.5, 50 mM NaCl, 1% NP-40, 10 μg/mL aprotinin, 0.1 mM PMSF). HA-tagged proteins (ALK1 to ALK7, p38R, SAPKR2) were immunoprecipitated with anti-HA antibody (12CA5; Roche); His6-tagged proteins (type II receptors) were precipitated with Ni-NTA agarose (Qiagen). The precipitates were washed in extraction buffer, with 20 mM imidazole for Ni-NTA agarose-precipitated proteins, and two times with kinase buffer (20 mM HEPES, pH 7.4, 10 mM MgCl2, 2 mM MnCl2, 1 mM DTT). The kinase reaction was initiated by addition of 20 μL of kinase buffer containing 0.5 μCi of [γ-32P]ATP, 5.0 μM ATP, and inhibitory peptides at a final concentration of 10 μM. The reaction was performed at 22° C. for 20 min and terminated by addition of SDS-containing sample buffer and boiling for 5 min. The reaction products were analyzed by SDS-PAGE and exposure in a Fuji X2000 phosphorimager. Equal loading was controlled by immunoblotting aliquots of the samples with a HA probe (Y-11; Santa Cruz) or anti-His antibody (Qiagen).
(§2) To evaluate whether the substrate-mimicking peptides affect kinases of type I and type II reptors of the TGFβ family, we studied the influence of peptides on authophosphorylation of all known mammalian type I receptors [ALK-1, ActR-I (ALK-2), BMPR-IA (ALK-3), ActR-IB (ALK-4), TβR-I (ALK-5), BMPR-IB (ALK-6), and ALK-7], TβRII, ActR-II, BMPR-II, p38R, and SAPKR2 (FIG. 5). The kinases were expressed in COS-7 cells and purified by using specific anti-tag antibodies or Ni-NTA agarose, and kinase activity was tested in the presence of peptides.

BMPR-II = target: T2, BMPR-II (Homo sapiens, UniProt Q13873)
T2 construct: made in house; host or cells: COS-7 cells (transfected, Ni-NTA precipitated)
T2 sequence (Q13873 27-1038): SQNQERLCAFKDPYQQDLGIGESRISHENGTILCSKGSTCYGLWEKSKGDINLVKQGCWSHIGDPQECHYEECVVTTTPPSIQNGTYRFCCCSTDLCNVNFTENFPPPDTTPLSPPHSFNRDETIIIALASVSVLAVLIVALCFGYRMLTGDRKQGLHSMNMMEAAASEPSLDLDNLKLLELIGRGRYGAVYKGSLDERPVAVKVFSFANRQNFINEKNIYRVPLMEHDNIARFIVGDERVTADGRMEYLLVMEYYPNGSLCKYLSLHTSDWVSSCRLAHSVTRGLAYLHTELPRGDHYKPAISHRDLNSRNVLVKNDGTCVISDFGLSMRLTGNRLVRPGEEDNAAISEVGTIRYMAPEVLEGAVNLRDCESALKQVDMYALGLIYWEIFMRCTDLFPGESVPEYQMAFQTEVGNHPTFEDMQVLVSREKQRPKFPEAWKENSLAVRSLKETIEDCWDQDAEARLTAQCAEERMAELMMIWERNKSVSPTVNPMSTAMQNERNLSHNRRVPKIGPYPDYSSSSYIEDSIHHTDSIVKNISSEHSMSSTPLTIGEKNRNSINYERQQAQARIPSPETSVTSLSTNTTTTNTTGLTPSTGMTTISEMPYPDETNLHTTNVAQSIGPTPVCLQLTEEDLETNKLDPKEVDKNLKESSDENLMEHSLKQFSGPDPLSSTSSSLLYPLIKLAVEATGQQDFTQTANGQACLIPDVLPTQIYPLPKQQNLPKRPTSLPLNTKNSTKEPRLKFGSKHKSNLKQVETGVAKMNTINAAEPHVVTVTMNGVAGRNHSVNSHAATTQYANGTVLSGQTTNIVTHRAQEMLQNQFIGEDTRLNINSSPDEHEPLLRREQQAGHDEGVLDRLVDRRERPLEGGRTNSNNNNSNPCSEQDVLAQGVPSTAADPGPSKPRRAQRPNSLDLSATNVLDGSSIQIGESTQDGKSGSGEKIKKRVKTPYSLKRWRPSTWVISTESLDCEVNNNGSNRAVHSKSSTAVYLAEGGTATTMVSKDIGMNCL
Procedure: as §1, §2

TβRII = target: T3, TβRII (Homo sapiens, UniProt P37173)
T3 construct: made in house; host or cells: COS-7 cells (transfected, Ni-NTA precipitated)
Procedure: as §1, §2

ActR-II = target: T4, ActR-II (Homo sapiens, UniProt P27037)
T4 construct: made in house; host or cells: COS-7 cells (transfected, Ni-NTA precipitated)
Procedure: as §1, §2

ALK-1 = target: T5, ALK-1 (Homo sapiens, UniProt P37023)
T5 construct: made in house; host or cells: COS-7 cells (transfected, immunoprecipitated)
Procedure: as §1, §2

BMPR-IB (ALK-6) = target: T6, BMPR-IB (ALK-6) (Homo sapiens, UniProt O00238)
T6 construct: made in house; host or cells: COS-7 cells (transfected, immunoprecipitated)
Procedure: as §1, §2

T6 sequence (O00238 14-502): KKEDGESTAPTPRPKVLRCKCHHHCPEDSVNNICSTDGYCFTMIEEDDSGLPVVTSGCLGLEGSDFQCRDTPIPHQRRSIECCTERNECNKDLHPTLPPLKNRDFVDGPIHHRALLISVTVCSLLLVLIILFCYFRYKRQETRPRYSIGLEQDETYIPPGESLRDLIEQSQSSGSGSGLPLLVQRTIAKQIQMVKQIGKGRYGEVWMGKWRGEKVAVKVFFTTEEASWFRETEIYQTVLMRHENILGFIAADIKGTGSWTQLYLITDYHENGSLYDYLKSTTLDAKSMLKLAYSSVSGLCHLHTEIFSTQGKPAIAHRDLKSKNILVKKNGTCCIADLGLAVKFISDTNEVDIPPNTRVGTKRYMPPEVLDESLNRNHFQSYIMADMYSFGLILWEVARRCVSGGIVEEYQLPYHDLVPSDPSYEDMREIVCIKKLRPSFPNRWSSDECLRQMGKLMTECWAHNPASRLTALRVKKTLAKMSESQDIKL
T5 sequence (P37023 22-503, species assumed): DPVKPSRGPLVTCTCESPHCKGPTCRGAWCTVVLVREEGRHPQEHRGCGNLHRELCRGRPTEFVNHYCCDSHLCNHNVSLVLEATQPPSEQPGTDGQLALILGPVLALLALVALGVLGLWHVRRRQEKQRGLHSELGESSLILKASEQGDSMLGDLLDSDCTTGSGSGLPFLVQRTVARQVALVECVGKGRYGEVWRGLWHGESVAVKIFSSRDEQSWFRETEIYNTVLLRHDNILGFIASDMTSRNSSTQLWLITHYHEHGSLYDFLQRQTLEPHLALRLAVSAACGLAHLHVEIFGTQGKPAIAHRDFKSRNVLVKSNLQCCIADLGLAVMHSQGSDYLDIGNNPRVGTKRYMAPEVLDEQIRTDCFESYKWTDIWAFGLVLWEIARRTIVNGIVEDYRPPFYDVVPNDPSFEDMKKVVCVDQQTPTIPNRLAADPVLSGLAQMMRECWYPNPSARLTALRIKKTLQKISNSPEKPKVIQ
T4 sequence (P27037 20-513): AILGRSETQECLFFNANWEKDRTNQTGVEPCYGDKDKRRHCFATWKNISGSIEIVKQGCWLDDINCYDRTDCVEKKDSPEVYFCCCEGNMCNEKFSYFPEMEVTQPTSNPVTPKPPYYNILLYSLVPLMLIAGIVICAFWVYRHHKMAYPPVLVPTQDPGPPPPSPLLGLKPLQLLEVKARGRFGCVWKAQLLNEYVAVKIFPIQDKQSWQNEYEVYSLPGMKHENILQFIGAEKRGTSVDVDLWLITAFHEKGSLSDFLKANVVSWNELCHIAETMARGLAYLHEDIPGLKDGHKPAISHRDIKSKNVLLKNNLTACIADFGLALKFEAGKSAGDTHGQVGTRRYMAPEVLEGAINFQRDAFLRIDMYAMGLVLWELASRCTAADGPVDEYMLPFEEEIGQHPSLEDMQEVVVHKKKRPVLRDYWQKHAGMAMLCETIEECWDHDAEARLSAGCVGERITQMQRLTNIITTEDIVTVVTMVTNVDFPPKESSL
T3 sequence (P37173 23-567, species assumed): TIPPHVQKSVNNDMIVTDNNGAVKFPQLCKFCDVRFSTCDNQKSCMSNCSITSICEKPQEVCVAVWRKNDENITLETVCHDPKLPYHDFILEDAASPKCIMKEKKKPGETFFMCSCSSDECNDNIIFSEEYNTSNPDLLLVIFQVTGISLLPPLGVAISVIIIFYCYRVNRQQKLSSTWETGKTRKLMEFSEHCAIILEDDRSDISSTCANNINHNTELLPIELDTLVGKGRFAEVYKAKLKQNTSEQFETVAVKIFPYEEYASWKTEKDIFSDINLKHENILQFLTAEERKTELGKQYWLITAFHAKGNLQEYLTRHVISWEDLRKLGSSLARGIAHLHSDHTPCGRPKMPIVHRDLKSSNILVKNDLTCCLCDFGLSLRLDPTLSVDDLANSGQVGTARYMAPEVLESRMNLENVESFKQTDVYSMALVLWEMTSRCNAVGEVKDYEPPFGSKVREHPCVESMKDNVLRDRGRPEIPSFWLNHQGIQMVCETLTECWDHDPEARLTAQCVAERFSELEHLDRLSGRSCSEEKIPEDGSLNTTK

| Effect on TβR-I kinase (TβR-I (ALK-5)) | Effect on BMPR-II kinase (BMPR-II) | Effect on TβRII kinase (TβRII) | Effect on ActR-II kinase (ActR-II) | Effect on ALK-1 kinase (ALK-1) | Effect on BMPR-IB (ALK-6) kinase (BMPR-IB (ALK-6)) | Sequence |
| --- | --- | --- | --- | --- | --- | --- |
| inhibited | without any effect | without any effect | without any effect | without any effect | without any effect | RQIKIWFQNRRMKWKKTQMGSPSVRCSSMS (listed as Homo sapiens) [antp-Sm2S, penetratin fused to the C-terminus of wild-type Smad2] |
| inhibited | without any effect | without any effect | without any effect | without any effect | without any effect | RQIKIWFQNRRMKWKKTQMGSPSVRCSAMA (listed as Homo sapiens) [antp-Sm2A] |
